Molecular target: the molecule itself
Test: western blot (band of dimer size after electrophoresis); mitochondrial fractions of F258 cells exposed to B[a]P (50 nM or 1 µM, 48 h), lysed in RIPA buffer; 24 kDa band beside the 12 kDa monomer; gel conditions not shown

B1: ATPase inhibitory factor 1 (IF1) (natural protein, rat (endogenous in F258), UniProt Q03344 26-107, looked up)
chain: GSDSSESMDSGAGSIREAGGAFGKREKAEEDRYFREKTREQLAALKKHHEDEIDHHSKEIERLQKQIERHKKKIKYLKNSEH
notes: monomeric form printed as 12 kDa, dimer band as 24 kDa; Detected with a polyclonal rabbit anti-ATPIF1 antibody, used only as a tool; The western blot methods are in the Supplementary Information; also called ATPIF1; source: endogenous, mitochondrial fraction of F258 rat liver epithelial cells, lysed in RIPA buffer
In the case of B1, the “stoichiometry N” value is reported as 2.
